This is an account of results in the DeepSol protein solubility set.

This data set is described as follows: soluble on expression in E. coli; label from the status in PepcDB or PDB records.
With “MGSDKIHHHHHHMRMLRRGSRGNDVAEVQVRLSELGYIPGPIDGIFGPKTEAAVIRFQKDRGLNPDGIVGPLTYQALFQPGPQPGYVLYTIKAGDTFYKLSLAFGVSLNEIIAANPGVDPYQLRIGQQVRIPKGGPGRRHTFSAWIPYWVQQEAMAVVRQHAELMTTLSPFWYELTPTGDLLLYPNAEDSSLIEFARSRGIELIPLVANNYDRQLISTVLNNPDLRQRNIAQIVNKVRSMNYTGIEIDYENIAAADRELFVLFLRELKAALAPYNKKLYVAIQAKTRADEPVSIGHDYGGIGAAVDVVRLMLYDYSWDNPGPIAPASWIRQVLDYAVTVIPPAKLEAGLPTYGYDWGTTRRSITYDDAIRLAQQHGAQIIQDPQRGPHFNYTDADGIAHQVWFTNALNFATFVDIVNQYNLRGISIWHPGGDDPQIYTVIQDRLE”, the “soluble on expression in E. coli” value is reported as “not soluble”. Turning to “MQTFQADLAIVGAGGAGLRAAIAAAQANPNAKIALISKVYPMRSHTVAAEGGSAAVAQDHDSFEYHFHDTVAGGDWLCEQDVVDYFVHHCPTEMTQLELWGCPWSRRPDGSVNVRRFGGMKIERTWFAADKTGFHMLHTLFQTSLQFPQIQRFDEHFVLDILVDDGHVRGLVAMNMMEGTLVQIRANAVVMATGGAGRVYRYNTNGGIVTGDGMGMALSHGVPLRDMEFVQYHPAGLPGSGILMTEGCRGEGGILVNKNGYRYLQDYGMGPETPLGEPKNKYMELGPRDKVSQAFWHEWRKGNTISTPRGDVVYLDLRHLGEKKLHERLPFICELAKAYVGVDPVKEPIPVRPTAHYTMGGIETDQNCETRIKGLFAVGECSSVGLHGANRLGSNSLAELVVFGRLAGEQATERAATAGNGNEAAIEAQAAGVEQRLKDLVNQDGGENWAKIRDEMGLAMEEGCGIYRTPELMQKTIDKLAELQERFKRVRITDTSSVFNTDLLYTIELGHGLNVAECMAHSAMARKESRGAHQRLDEGCTERDDVNFLKHTLAFRDADGTTRLEYSDVKITTLPPAKRVYGGEADAADKAEAANKKEKANG”, the “soluble on expression in E. coli” value is given as “soluble”. The entry for “MSLYKAVFSDFNGTLLTSQHTISPRTVVVIKRLTANGIPFVPISARSPLGILPYWKQLETNNVLVAFSGALILNQNLEPIYSVQIEPKDILEINTVLAEHPLLGVNYYTNNDCHARDVENKWVIYERSVTKIEIHPFDEVATRSPHKIQIIGEAEEIIEIEVLLKEKFPHLSICRSHANFLEVMHKSATKGSAVRFLEDYFGVQTNEVIAFGDNFNDLDMLEHVGLGVAMGNAPNEIKQAANVVTATNNEDGLALILEEKFPEEGHHHHHH” is “soluble”; for “MSLNPLKCAVIGVGYLGKFHAEKYAALPGCELVAVVDADPVTAAEIGDRLGVRGLTDHRALLGKVDAVSVVVPTSLHHRVARDFLEAGAHVLVEKPITVTVEEADELIRIAKEKQRVLMVGHLERFNAAVLGLDLDHHKPLFIESHRLAPFKPRANDVSVVLDLMIHDIDIILDMVDSEVERIDAKGVAVLTGDIDIANARLQFKSGCVANVTASRVSLKVERKMRMFMPNAYVSVDFQNRVLARHRKGEGEMFPGVPEILSEESVFENGDALMEEIRHFLDCIREHREPLVSGAAGRRALATAIEITNLLKVQESRSEGHHHHHH” it is “soluble”; for “MAHHHHHHMATSSHRTAMSSLSAAMKQYVQQAAEDDVVCAFGPDYFHGARTGACVGSLFSATLCWYTFRLLKEDQREVDFLAGLKHGQRNPHFSTWTLLRGLRTQPMLTTGCIALATTSAMKCIKCYLANQRCREFFTDDVQFHMISELSETDLDAAAFLSTVLHNANGCGVGARNALSTLREDRSEDQPSMSPAPTASASTSTVNGLLHTHSSRLDSKEFTLTHRAPTYYDGVAVAFLGSVLDCYLPQKPVQKYYNMRVGTW” it is “not soluble”. On to “MSLSGIINNREYRQKVLKEIILELHNGKSVDEVRKRFQELIKGVSTKEISEMEAQLIKEGMKVEEIQRLCDVHAAVFKGSIDQIHHPEKEEGHPVSVLKKENEAVKNYIQSHLTPNLEEIKKSDSHSTRLKLMENISMLFDLDKHYSRKENLIFPYLEKYGITAPPKVMWGVDDEIREALKECKEVINSANKTPNEITEKVESTLKRIEEMIFKEESILLPMCIDTFSEDEWLDIESESDEIGYCLISPSEKWKPKRENVEEKEKSKLANENSEGYIKFDTGILRVNELSAILDTLPLDITFVDKDGTVKYFSGGSERIFARTRAVIGRKVQNCHPPASVHIVEKVVEDLKSGKKDHEDFWLHMGELYVFIRYYAVKDNKGEFIGVLEVTQNIKEIQEITGEKRLIEEGHHHHHH”, for which the “soluble on expression in E. coli” value is on record as “soluble”.

With “MHHHHHHSSGVDLGTENLYFQSMGNKYIQQTKPLTLERTINLYPLTNYTFGTKEPLYEKDSSVAARFQRMREEFDKIGMRRTVEGVLIVHEHRLPHVLLLQLGTTFFKLPGGELNPGEDEVEGLKRLMTEILGRQDGVLQDWVIDDCIGNWWRPNFEPPQYPYIPAHITKPKEHKKLFLVQLQEKALFAVPKNYKLVAAPLFELYDNAPGYGPIISSLPQLLSRFNFIYN”, the “soluble on expression in E. coli” value is given as “soluble”. On to “MGSSSSFSSSSSKLLFRQLFENESSTFTYLLADVSHPDKPALLIDPVDKTVDRDLKLIDELGLKLIYAMNTHVHADHVTGTGLLKTKLPGVKSVISKASGSKADLFLEPGDKVSIGDIYLEVRATPGHTAGCVTYVTGEGADQPQPRMAFTGDAVLIRGCGRTDFQEGSSDQLYESVHSQIFTLPKDTLIYPAHDYKGFEVSTVGEEMQHNPRLTKDKETFKTIMSNLNLSYPKMIDVAVPANMVCGLQDVPSQAN”, for which the “soluble on expression in E. coli” value is “soluble”. The entry for “MAVPEGNSWTYTAASASITAPAQLVGNVGELQGAGSAVIWNVDVPVTGEYRINLTWSSPYSSKVNTLVMDGTALSYAFAEATVPVTYVQTKTLSAGNHSFGVRVGSSDWGYMNVHSLKLELLGGLTIRSPANLEHHHHHH” is “soluble”; for “MSKLDLNALNELPKVDRILALAETNAELEKLDAEGRVAWALDNLPGEYVLSSSFGIQAAVSLHLVNQIRPDIPVILTDTGYLFPETYRFIDELTDKLKLNLKVYRATESAAWQEARYGKLWEQGVEGIEKYNDINKVEPMNRALKELNAQTWFAGLRREQSGSRANLPVLAIQRGVFKVLPIIDWDNRTIYQYLQKHGLKYHPLWDEGYLSVGDTHTTRKWEPGMAEEETRFFGLKRECGLHEGLEHHHHHH” it is “soluble”; for “LPIQARPRRNRKNRAVRQLVQENLVKPSSLIYPLFVHDEETSVPIPSMPGQSRLSMEDLLKEVGEARSYGIKAFMLFPKVDDELKSVMAEESYNPDGLLPRAIMALKEAFPDVLLLADVALDPYSSMGHDGVVDEQSGKIVNDLTVHQLCKQAITLARAGADMVCPSDMMDGRVSAIRESLDMEGCTDTSILAYSCKYASSFYGPFRDALDSHMVGGTDKKTYQMDPSNSREAEREAEADASEGADMLMVKPGLPYLDVLAKIREKSKLPMVAYHVSGEYAMLKAAAEKGYISEKDTVLEVLKSFRRAGADAVATYYAKEAAKWMVEDMKGTQKFTEPCY” it is “soluble”. The entry for “MKNKSLLLAVAISATLLAGCKNGVNGNLIASSGMSTYKAATLSDADVKALSNNACKQMDSENQLAGSKSKYTKRLSKIAKALGNNIDGTPVSYKVYMTSDINAWAMANGCVRVYSGLMDLMTDNEIEGVLGHELGHVSLGHSRKAMQTAYATLAARDAISATSGVAAQLSQSQLGDLAEGVINSAFSRSQESDADDFSYDLLKKRGINTQGLVTAFDKFATMDAGHAKSLMDSHPASADRAQHMRDRIAEDKKLEHHHHHH” is “not soluble”; for “MRRGRGKGKKQNASAREDRGSGDEEKIPAYRRRGRPQKPMKDDFEEEEEEDDEEMVEKMEVEDEDEEIDDGSVTSKDLKERKRKMSNGSNTDLTEEENGLGSKPNTDDSTRSTSIGFRQNGSRRKSKPRRAAEAVVECNGV” it is “soluble”; for “GSEDLKKLEEEFDVRLGVYAIDTGADKEISYRENERFAYTSTFKPLAVGAVLQTKSDEELEETITYSEEDLVTYSPITEQHVDEGMTLVEIADAAIRYSDNTAGNLLLEAMGGPDELETILRDIGDETIEMDRYETELNEAKPGDIRDTSTAKAMATTLQQYVLEDVLDADRREVLTNMLINNTTGDALIRAGVPDGWTVGDKTGAGGYGTRNDIGIIWPEGDEEPIVIAIMSSRDEEDADYDDKLIEKATEIVLQELRN” it is “soluble”.

Regarding “MGHHHHHHSHMSFTTRSTFSTNYRSLGSVQAPSYGARPVSSAASVYAGAGGSGSRISVSRSTSFRGGMGSGGLATGIAGGLAGMGGIQNEKETMQSLNDRLASYLDRVRSLETENRRLESKIREHLEKKGPQVRDWSHYFKIIEDLRAQIFANTVDNARIVLQIDNARLAADDFRVKYETELAMRQSVENDIHGLRKVIDDTNITRLQLETEIEALKEELLFMKKNHEEEVKGLQAQIASSGLTVEVDAPKSQDLAKIMADIRAQYDELARKNREELDKYWSQQIEESTTVVTTQSAEVGAAETTLTELRRTVQSLEIDLDSMRNLKASLENSLREVEARYALQMEQLNGILLHLESELAQTRAEGQRQAQEYEALLNIKVKLEAEIATYRRLLEDGEDFNLG”, the “soluble on expression in E. coli” value was “soluble”. With “MGSDKIHHHHHHMKPTLFVLAAGMGSRYGSLKQLDGIGPGGDTIMDYSVYDAIRAGFGRLVFVIRHSFEKEFREKILTKYEGRIPVELVFQELDRLPEGFSCPEGREKPWGTNHAVLMGRDAIREPFAVINADDFYGRNGFEVLARKLMTLEGKQGEYCMVGYRVGNTLSESGGVSRGVCQVDEKHLLTGVVERTGIERTDGTISFRDETGKICTLAEDAPVSMNMWGFTPDYFDYSEELFINFLNAHGQEPKSEFFIPFVVNDLIRSGRASVEVLDTTARWFGVTYSDDRPGVVAKLRELTEAGEYPTKLF”, the “soluble on expression in E. coli” value is on record as “not soluble”.

“MSLSPAELHADSIVIDGLIIAKWNRELFEDMRKGGLTAANCTVSVWEGFQATVNNIAASNKLIRDNSDLVIPVRSTADIRKAKEQGKTGILYGFQNAHAFEDQIGYVEVFKQLGVGIVQMCYNTQNLVGTGCYERDGGLSGFGREIVAEMNRVGIMCDLSHVGSKTSEEVILESKKPVCYSHCLPSGLKEHPRNKSDEELKFIADHGGFVGVTMFAPFLKKGIDSTIDDYAEAIEYVMNIVGEDAIGIGTDFTQGHGHDFFEWLTHDKGYARRLTNFGKIVNPLGIRTVGEFPNLTETLLERGMPERVVRKVMGENWVRVLRDVEGHHHHHH”: the “soluble on expression in E. coli” value is on record as “not soluble”. Regarding “MGSDKIHHHHHHMNDQLTEYRIKKAPYYRATGDETELYEAAYSVRMPMMLKGPTGCGKTRFVEYMAYKLGKPLITVACNEDMTASDLVGRFLLDPQGTRWQDGPLTLAARLGAICYLDEVVEARQDTTVVIHPLTDNRRVLPLEKKGELVQAHPDFQLVISYNPGYQSLMKDLKQSTKQRFGALDFNYPDHEIEAEIVSHETGVNKEVADKLVSIAERARNLKGHGLDEGISTRMLVYAGSLINKGVEAKAACRVTLVRPITDDPDMRDALDAAVTTYF”, the “soluble on expression in E. coli” value is recorded as “not soluble”. For “MAHHHHHHMSSASIVALSLSLSFSLGLLRSLGSARHIRYGHPHTNTSAYGGRHPRMQVMAAAARTYRHIVARELSTNFRAVASIVEAPFPTVLHPKAILVKNKYLGVNASDINFTAGIYQPDVRPPFACGFEAVGEVVDVGSGVKDLKAGAAVVTQSYGAFAEYQVVARRHAKPIPRVAREYLPLDLSATTASIALEHVLKPQPGERAVVTAAAGGTGQFAVQLLKHVYGCSVVGTCSSPSKEVFLTNTLKCDGVVNYKAEGGDTAAAFLRCYPRGVNIAYESVGGDLLEAVIQSLAPRGRILSLGCVSTYQCGSIEAACPSRKPLPLQLLAKSASLSTFFLPHFAKYGQLHFDRLCALHEQGLVQCCIDPTTFEGLEGVYDAIDWMFEQKNCGKVMVEL”, the “soluble on expression in E. coli” value is recorded as “not soluble”.
